# B1: soluble high affinity c50 ILT-like polypeptide dimer, Q8NHL6 25-217 (receptor)
# chain: MHLPKPTLWAEPGSVITMDQPVTLRCQGGQETQEYRLYREKKTAPWITRIPQELVKKGQFPIPSITWEHAGRYRCYYGSDTSQWSASSDPLELVVTGVYIKPTLSAQPSPVVNSGGNVTLQCDSQVAFDGFILCKEGEDEHPQCLNSQPHARGSSRAIFSVGPVSPSRRWWYRCYAYDSNSPYEWSLPSDLLELDVDGC
# modifications: here or on the partner: additional C-terminal cysteine linked through maleimide to MAL-PEG-MAL, MW 3.4 KD
# B2: soluble high affinity c50 ILT-like polypeptide tetramer, Q8NHL6 25-217 (receptor)
# chain: B1 chain
# modifications: here or on the partner: additional C-terminal cysteine linked through maleimide to 4arm MAL-PEG, MW 20 KD
# B3: soluble high affinity c50 ILT-like polypeptide monomer, Q8NHL6 25-221 (receptor)
# chain: MHLPKPTLWAEPGSVITMDQPVTLRCQGGQETQEYRLYREKKTAPWITRIPQELVKKGQFPIPSITWEHAGRYRCYYGSDTSQWSASSDPLELVVTGVYIKPTLSAQPSPVVNSGGNVTLQCDSQVAFDGFILCKEGEDEHPQCLNSQPHARGSSRAIFSVGPVSPSRRWWYRCYAYDSNSPYEWSLPSDLLELDVDG
# Target: Class I MHC
# Experiment: cell-based or functional assay
row,"IC50 for the inhibition of CTLs (IFN-gamma ELISPOT, MART-1 specific T cell clone KA/C5 with Mel 624 / Mel 526 target cells) [nM]",Binder
1,16.2,B1
2,0.7,B2
3,800,B3

# — patent US20090208447A1
